Test results: patent US20090280138A1 (OXFORD BIOMEDICA UK, published 2009)

B1: 5T4 9 mer peptide 58 (PPLAELAAL) (peptide)
peptide: PPLAELAAL
B2: 5T4 9 mer peptide 59 (LAELAALNL) (peptide)
peptide: LAELAALNL
B3: 5T4 9 mer peptide 99 (GMVVAALLA) (peptide)
peptide: GMVVAALLA
B4: 5T4 9 mer peptide 77 (PLADLSPFA) (peptide)
peptide: PLADLSPFA
B5: 5T4 9 mer peptide 23 (APFLASAVS) (peptide)
peptide: APFLASAVS
B6: 5T4 9 mer peptide 90 (ILNHIVPPE) (peptide)
peptide: ILNHIVPPE
B7: 5T4 9 mer peptide 101 (AALLAGRAL) (peptide)
peptide: AALLAGRAL
B8: 5T4 9 mer peptide 22 (SSAPFLASA) (peptide)
peptide: SSAPFLASA
B9: 5T4 9 mer peptide 49 (FLTGNQLAV) (peptide)
peptide: FLTGNQLAV
B10: 5T4 9 mer peptide 32 (PALCECSEA) (peptide)
peptide: PALCECSEA
B11: 5T4 9 mer peptide 81 (AFSGSNASV) (peptide)
peptide: AFSGSNASV
B12: 5T4 9 mer peptide 71 (LPSLRQLDL) (peptide)
peptide: LPSLRQLDL
B13: 5T4 9 mer peptide 117 (LPSLRHLDL) (peptide)
peptide: LPSLRHLDL
B14: 5T4 9 mer peptide 55 (GAFARRPPL) (peptide)
peptide: GAFARRPPL
B15: 5T4 9 mer peptide 120 (LDLSNNSLV) (peptide)
peptide: LDLSNNSLV
B16: 5T4 9 mer peptide 113 (LPRDVLAQL) (peptide)
peptide: LPRDVLAQL
B17: 5T4 9 mer peptide 17 (SPTSSASSF) (peptide)
peptide: SPTSSASSF
B18: 5T4 9 mer peptide 45 (LPAYVRNLF) (peptide)
peptide: LPAYVRNLF
B19: 5T4 9 mer peptide 177 (QTSYVFLGI) (peptide)
peptide: QTSYVFLGI
B20: 5T4 9 mer peptide 21 (FSSSAPFLA) (peptide)
peptide: FSSSAPFLA
B21: 5T4 9-mer peptide 77 PLADLSPFA (peptide)
peptide: PLADLSPFA
notes: also called Peptide No 77
B22: 5T4 9-mer peptide 99 GMVVAALLA (peptide)
peptide: GMVVAALLA
notes: also called Peptide No 99
B23: 5T4 9-mer peptide 106 GLRRLELAS (peptide)
peptide: GLRRLELAS
B24: 5T4 9-mer peptide 145 VFLDNNPWV (peptide)
peptide: VFLDNNPWV
B25: 5T4 9-mer peptide 174 ILPPSLQTS (peptide)
peptide: ILPPSLQTS
notes: also called Peptide No 174
B26: 5T4 9-mer peptide 11 LALVLLGWV (peptide)
peptide: LALVLLGWV
notes: also called Peptide No 11
B27: 5T4 9-mer peptide 4 RGPAAGDGR (peptide)
peptide: RGPAAGDGR
notes: also called Peptide No 4
B28: 5T4 9-mer peptide 118 SLRHLDLSN (peptide)
peptide: SLRHLDLSN
B29: 5T4 9-mer peptide 183 (peptide)
peptide: LIGAIFLLV
B30: 5T4 9-mer peptide 90 (peptide)
peptide: ILNHIVPPE
B31: 5T4 9-mer peptide 59 (peptide)
peptide: LAELAALNL
B32: 5T4 9-mer peptide 151 (peptide)
peptide: HMADMVTWL
B33: 5T4 9-mer peptide 49 (peptide)
peptide: FLTGNQLAV
B34: 5T4 9-mer peptide 77 (peptide)
peptide: PLADLSPFA
B35: 5T4 9-mer peptide 65 (peptide)
peptide: RLDEVRAGA
B36: 5T4 9-mer peptide 179 (peptide)
peptide: VFLGIVLAL
notes: also called VFLGIVLAL
B37: 5T4 9-mer peptide 99 (peptide)
peptide: GMVVAALLA
B38: 5T4 9-mer peptide 176 (peptide)
peptide: SLQTSYVFL
B39: 5T4 9-mer peptide 174 (peptide)
peptide: ILPPSLQTS
B40: 5T4 9-mer peptide 182 (peptide)
peptide: LALIGAIFL
B41: 5T4 9-mer peptide 22 (peptide)
peptide: SSAPFLASA
B42: 5T4 9-mer peptide 58 (peptide)
peptide: PPLAELAAL
notes: also called PPLAELAAL
B43: 5T4 9-mer peptide 187 (peptide)
peptide: VLYLNRKGI
B44: 5T4 9-mer peptide 126 (peptide)
peptide: YVSFRNLTH
B45: 5T4 9-mer peptide 113 (peptide)
peptide: LPRDVLAQL
B46: 5T4 9-mer peptide 45 (peptide)
peptide: LPAYVRNLF
B47: 5T4 9-mer peptide 17 (peptide)
peptide: SPTSSASSF
B48: 5T4 9-mer peptide 71 (peptide)
peptide: LPSLRQLDL
B49: 5T4 9-mer peptide 117 (peptide)
peptide: LPSLRHLDL
B50: 5T4 9-mer peptide 8 (peptide)
peptide: RLRLARLAL
notes: also called RLRLARLAL
B51: 5T4 9-mer peptide 55 (peptide)
peptide: GAFARRPPL
B52: 5T4 9-mer peptide 101 (peptide)
peptide: AALLAGRAL
notes: also called AALLAGRAL
B53: 5T4 9-mer peptide 23 (peptide)
peptide: APFLASAVS
B54: 5T4 9-mer peptide 163 (peptide)
peptide: YPEKMRNRV

Target: T1, MHC class I molecule A*0201 (biotin (bound via biotin to streptavidin-coated plates))
T1 construct: also called A2; HLA-A2
Experiment: iTopia affinity assay (ED50), peptide titration on plate-bound MHC
Experimental: (§1) The 9 mers were tested for Peptide Binding, Off Rate and Affinity using iTopia Epitope Discovery System in accordance with the manufacturer's instructions. Briefly, 96 well microtitre plates coated with MHC molecules representing different MHC alleles are used to identify candidate peptides. […] Determinations are performed in duplicate using an ELISA plate reader and included allele specific positive controls.
(§2) Dose-response curves of peptide binding to MHC were prepared by peptide titration to determine the ED50 measurement for each peptide. Values for the concentrations tested (in duplicate) were obtained as a percentage of the highest (9000×) concentration of the positive control peptide. A dose-response curve was generated using GraphPad Prism® curve fitting software, which automatically calculated the ED50 (in Molarity) for each peptide.

| Binder | EC50 [µM] |
| --- | --- |
| B1 | 40 |
| B2 | 2 |
| B3 | 0.6 |
| B4 | 2 |
| B5 | 20 |
| B6 | 6 |
| B7 | 4 |
| B8 | 0.3 |
| B9 | 1 |
| B10 | 4 |
| B11 | 7 |
| B12 | 5 |
| B13 | 20 |
| B14 | 0.8 |
| B15 | 20 |

Target: T2, MHC class I molecule B*0702 (biotin (bound via biotin to streptavidin-coated plates))
T2 construct: Methods name B*0702 as the allele used; also called B7; HLA-B7
Experiment: as above
Experimental: as §1, §2

| Binder | EC50 [µM] |
| --- | --- |
| B1 | 30 |
| B16 | 10 |
| B2 | 20 |
| B17 | 2 |
| B5 | 20 |
| B18 | 2 |
| B7 | 7 |
| B12 | 3 |
| B13 | 5 |
| B14 | 10 |

Target: T3, MHC class I molecule A*0101 (biotin (bound via biotin to streptavidin-coated plates))
T3 construct: also called A1; HLA-A1
Experiment: as above
Experimental: as §1, §2

| Binder | EC50 [µM] |
| --- | --- |
| B19 | 20 |
| B20 | 20 |

Target: T4, MHC class I molecule HLA-A*0201 (iTopia plate-bound monomer) (biotin (bound to streptavidin-coated plate))
T4 construct: also called A2
Experiment: iTopia off-rate assay, 37 C; fit R^2 0.93
Experimental: as §1
A one-phase exponential decay curve, with a plateau given equal to 0, was generated using GraphPad Prism® software, which calculated the t1/2 and goodness-of-fit, as measured by r², for each peptide.

| Binder | t½ half life [h] |
| --- | --- |
| B21 | 4.8 |
| B22 | 1.8 |
| B23 | 0.4 |
| B24 | 1.2 |
| B25 | 5 |
| B26 | 1.6 |
| B27 | 1.2 |
| B28 | 0.4 |

Target: T5, MHC class I allele A*0201 monomer (human, biotinylated, bound to streptavidin-coated plate)
T5 construct: also called A2; HLA-A2
Experiment: iTopia, multiparametric iScore
Experimental: as §1
(§3) Finally, multiparametric analysis is performed on the results from these assays and an iScore is generated. The iScore represents a measure of the overall quality of peptide-MHC binding, enabling candidate peptides to be ranked in order of binding quality and allowing rational prioritisation of peptides for functional cellular follow-up studies.

| Binder | iScore |
| --- | --- |
| B29 | 1.9 |
| B30 | 0.426 |
| B31 | 0.72 |
| B32 | 0.821 |
| B33 | 0.791 |
| B34 | 0.556 |
| B35 | 0.422 |
| B36 | 0.606 |
| B37 | 0.384 |
| B38 | 0.561 |
| B39 | 0.523 |
| B40 | 0.425 |
| B41 | 0.389 |

Target: T6, MHC class I allele B*0702 monomer (human, biotinylated, bound to streptavidin-coated plate)
T6 construct: also called B7; HLA-B7
Experiment: iTopia, multiparametric iScore
Experimental: as §1, §3

| Binder | iScore |
| --- | --- |
| B42 | 0.145 |
| B43 | 0.164 |
| B44 | 0.21 |
| B45 | 0.305 |
| B46 | 0.389 |
| B47 | 0.335 |
| B48 | 0.454 |
| B49 | 0.445 |
| B50 | 1 |
| B51 | 0.359 |
| B52 | 0.238 |
| B53 | 0.176 |
| B54 | 0.242 |

Target: T5, MHC class I allele A*0201 monomer
Experiment: iTopia, multiparametric iScore
Remark: another data set of the same source
Procedure, shortened: (§4)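 The iScore combines the binding, off-rate and affinity results into one overall binding-quality value for each 9-mer. These measurements were made by ELISA in duplicate on MHC-coated plates, with allele-specific positive controls.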

| Binder | iScore |
| --- | --- |
| B43 | 0.095 |
| B44 | 0 |
| B32 | 0.821 |
| B36 | 0.606 |
| B38 | 0.561 |
| B39 | 0.523 |
| B40 | 0.425 |
| B54 | 0 |

Target: T6, MHC class I allele B*0702 monomer
Experiment: iTopia, multiparametric iScore
Remark: another data set of the same source
Procedure, shortened: as §4

| Binder | iScore |
| --- | --- |
| B29 | 0 |
| B43 | 0.164 |
| B44 | 0.21 |
| B32 | 0 |
| B36 | 0 |
| B38 | 0 |
| B39 | 0 |
| B40 | 0.067 |
| B54 | 0.242 |

Target: T7, MHC class I allele A*0301 monomer (human, biotinylated, bound to streptavidin-coated plate)
T7 construct: also called A3; HLA-A3
Experiment: iTopia, multiparametric iScore
Procedure, shortened: as §4

| Binder | iScore |
| --- | --- |
| B29 | 0.07 |
| B43 | 0.017 |
| B44 | 0.086 |
| B32 | 0 |
| B36 | 0 |
| B38 | 0 |
| B39 | 0 |
| B40 | 0 |
| B54 | 0 |

Target: T8, MHC class I allele A*0101 monomer (human, biotinylated, bound to streptavidin-coated plate)
T8 construct: placeholder peptide and b2M removed, then reconstituted with test peptide and fresh b2M; also called A1; HLA-A1
Experiment: iTopia, multiparametric iScore
Procedure, shortened: as §4

| Binder | iScore |
| --- | --- |
| B29 | 0 |
| B43 | 0 |
| B44 | 0 |
| B32 | 0 |
| B36 | 0 |
| B38 | 0 |
| B39 | 0 |
| B40 | 0 |
| B54 | 0 |
